US8697386B2, “Methods and compositions for modulating hepsin activation of macrophage-stimulating protein” (Genentech, Inc., priority 2009, dated 2014)
* marks the point of attachment. CH2Cl = ClC*

Tests used:
[1] = biological target: T1, cell surface expressed hepsin in LnCap-34 cells (Homo sapiens, UniProt P05981); test: Pro-MSP activation by cell surface expressed hepsin in LnCap-34 cells; type: cell-based; details: 1 μM inhibitor, 15 minutes preincubation, 125I-pro-MSP 25 μg/ml, 3 hours, 37° C.
T1 construct: expressed in transfected cells; host or cells: LnCaP-34 cells
T1 sequence (P05981 whole entry): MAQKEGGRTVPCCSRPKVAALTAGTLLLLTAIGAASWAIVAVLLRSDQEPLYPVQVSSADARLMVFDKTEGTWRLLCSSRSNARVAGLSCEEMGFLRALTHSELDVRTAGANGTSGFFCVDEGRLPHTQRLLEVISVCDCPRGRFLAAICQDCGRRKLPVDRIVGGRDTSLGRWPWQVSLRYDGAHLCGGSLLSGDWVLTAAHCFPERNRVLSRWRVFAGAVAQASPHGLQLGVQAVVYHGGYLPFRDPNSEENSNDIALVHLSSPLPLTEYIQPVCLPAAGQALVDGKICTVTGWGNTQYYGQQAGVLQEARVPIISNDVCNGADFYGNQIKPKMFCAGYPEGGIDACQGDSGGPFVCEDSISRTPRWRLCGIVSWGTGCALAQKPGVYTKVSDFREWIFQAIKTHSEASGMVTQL
Procedure: Confluent LnCap-34 cells cultured in 24-well plates were washed with serum-free RPMI-1640 medium and were incubated either alone or with different anti-hepsin inhibitors (1 μM of anti-hepsin antibody Fab25/1 μM of KD1/1 μM of Ac-KQLR-cmk (‘KLQR” disclosed as SEQ ID NO:10)) in serum-free RPMI-1640 medium for 15 minutes at 37° C. prior to addition of 125I-labeled pro-MSP (25 μg/ml). After incubation for 3 hours at 37° C., aliquots were removed and analyzed by SDS-PAGE (4-20% gradient gel) (Invitrogen, Carlsbad, Calif.) followed by exposure to X-ray films.

Ron signaling pathway = test: Immunoblot for phosphorylated downstream kinases in A2780 cells overexpressing human Ron; type: cell-based; details: pro-MSP 10 and 50 ng/ml, 10 nM hepsin, 1 hour
Procedure: Immunoblot for the detection of phosphorylated kinases: A human ovarian carcinoma cell line (A2780) overexpressing human Ron was used to study the phosphorylation of Ron and other downstream kinase. Cells at a density of 2×10^5 cells/well were cultured in 12-well plate and serum-starved for 24 hours. The cells were then stimulated with either pro-MSP (10 and 50 ng/ml) alone or in presence of 10 nM Hepsin for 1 hour. Mature MSP from a commercial source and hepsin were used as controls. Samples were prepared by washing cells twice with cold PBS followed by addition of 200 ul lysis buffer. Samples were then analyzed by SDS/PAGE on 4-12% Tris-glycine gels (Invitrogen, Carlsbad, Calif.). Proteins were transferred onto nitrocellulose membranes and subsequently treated with anti-Ron antibody or anti-phospho-AKT antibody or anti-phospho-MAPK antibody or anti-phospho-S6 antibody, overnight at 4° C. After washing, membranes were incubated with IRDye800-conjugated goat anti-mouse IgG (Rockland, Gilbertsville, Pa.) and AlexaFluor 680 goat anti-rabbit IgG (Invitrogen) for 1 h. Proteins were detected with the Odyssey Infrared Imaging System (LI-COR Biosciences, Lincoln, Nebr.).

Substance	blocking of pro-MSP proteolytic cleavage by cell surface hepsin [1]	phosphorylation of MAP kinase and S6 kinase (activation of Ron signaling pathway) (Ron signaling pathway)
Ac-KQLR-chloromethylketone (Ac-KQLR-CH2Cl; SMILES CC(=O)N[C@@H](CCCCN)C(=O)N[C@@H](CCC(N)=O)C(=O)N[C@@H](CC(C)C)C(=O)N[C@@H](CCCNC(=N)N)C(=O)CCl) [reference compound]	effectively blocked	–
KD1: Kunitz domain 1 (KD1) of HAI-1 or HAI-1B, hepsin inhibitor (TEDYCLASNKVGRCRGSFPRWYYDPTEQICKSFVYGGCLGNKNNYLREEECILACRGV)	effectively blocked	–
hepsin: extracellular domain of the human recombinant hepsin, type II transmembrane serine protease	–	Neither hepsin nor pro-MSP alone was effective
